Test results from the domain aggregation screens of Martell et al. (2025).

Experiment: soluble fraction after stress (log2 fold change); higher = more stays soluble; pooled small domains, quantitative proteomics
Settings: stress: 50 degC
How it was run: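 Pooled custom libraries of small protein domains were measured in a high-throughput format, with quantitative proteomics as the read-out. Each library was stressed at 50°C. Aggregation propensity is given as the base-two logarithm of the fold change in how much of each protein stays soluble after the stress. Higher values mean a larger share of the protein remains in solution.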

| Sequence | soluble fraction (log2) |
| --- | --- |
| HMSKTKDVLVQLMAERGLTQSDIARALSVRPQAVQQWVSGKTRPTGKNLEALAEFLQLPPAVIVHGP | -0.00766 |
| HMSKTQVKSVLDDIKGIGVVRRKALIKHFNDIEAIKAAQLAELKAVAGMDSKSAQSVYDFFHK | -0.186 |
| HMSKYERVYTGSEINVNHLKSQLEDAGISSVVRNDHESAIRAGFGSDYDRGVLLFVEKDNLLRAKHIIEKT | 0.0318 |
| HMSKYLAFTVKKNDELLPFIEKALNGISHTKAKAILANGGAMVNKNTITQYNYPLTPGMTVEISRH | 0.131 |
| HMSLDLNENEKTIFDIIQNKKTIRLSELKIEAGLSNKGWDKAMKSLTKQGLAKVVKTEDQLTVKLL | -0.0993 |
| HMSLEDNEVIQRMKVILDRFDEETAVDRTTAFKAVLDHIGKMDAESKTLEHMAEMLEALLDKVLEE | -0.237 |
| HMSLGPNAYGKPATALNILRETVMGKELFDHAFKTYSKRWMFKHPSPEDFFRTMEDASAVDLDWFWR | -0.239 |
| HMSLGSQEYSIGFRNGDSTYHYIDKALKELAYEGVIDELSTQWFGSSRAVDFPSQKDALSELGYIA | -0.0308 |
| HMSLGSSLFHARKKSGLTQEAVAEKLGVSRQTISKWETNETLPDIRQSKGLAMLYHMTLDELIE | -0.223 |
| HMSLGTDVVPDFTGKGIKEAKTEFAAYSEGELYIIGEGEKVKEQFPLPGEKVNKNSDLILYV | 0.101 |
| HMSLIDLLQLNRKSKKLTLMNLVEMTGLSYGKVYRIFNGGIDKPTPDSLKLLAKALQLDYSYLFHKAGYL | -0.161 |
| HMSLIEQKSQIPLVQGGQRVDKVAAALFTDFSRAELTGWIQQGALTLDGAVVKPKYKVLGGEWLYLRASQS | -2.02 |
| HMSLNIIEITAKKEINELKSFNIIYFNFDKNNSIYEYKISEREKKEILEIEKIIKNSDNVTNYEIRYSF | -0.52 |
| HMSLNQRIKEARIKMGYTQEQLGNLIGVAKTTISGYEKNREPDAATIGLIIDALKVDANFLFQ | -1.62 |
| HMSLNSELIARIENLIASIEDKRSWGYGFAESVLGQVQAGATLSPRQLEIIAKLEKENSYSVQLERQ | -0.765 |
| HMSLPALSAEEQKIVDALHGTPKGVDDIIAETGISSGALLRSLTMLELKKVIVRLPGNRIAPK | -0.128 |
| HMSLPDREVVLETSSDSYYHFKTDHFQRQITYSAVRNAPVRLVTISAERAFEVISLNRRGERPEHLE | -3.53 |
| HMSLQEISDLISQAERADQEQLKEVLKQLHQVESGNQPMSKGFLSSALSTLNKYPALITSIGQLLFKLAT | 0.00954 |
| HMSLSEGVSADVVADVQARLMELGYMDEDDPDGNFSESTRIAVEHFQQQAGLPVTGTVDKATLDALNSPD | 0.0669 |
| HMSLSQLGLTPRQTDVLALLLKGQPNKLIARELGLSVETVKDHVAAVLRALNVSSRTQAVIAVSQMLQ | -0.905 |
| HMSLSVEESYKLLDISPSAGDEEITKKFRLLALKYHPDKNRSKIEWANNIMSRLNQAYSVIMSSRFESNAE | -0.476 |
| HMSLTTKSVEETLGITRQTLHNWIKEGLLPAPKKDFRNWYIWSDEDLENLRNIIEQKTLINNKKQAV | -0.133 |
| HMSMANKKDFILDTAQKLFMEQGFDQTSISQILEATQIARGTLYYYFSSKEEIMDAIIERTIEQ | -1.05 |
| HMSMDYYNILGVNRNASTGEIKKAYKRASMQHHPDRGGNSDEFIKVQQAYDTLSDNHKRQAYDNP | 0.0774 |
| HMSMDYYSTLGVSKTASASDIKKAYRKLAMANHPDKGGDSAKFAKITEAYDVLKDPQKRNNYDQFGTA | 0.162 |

| Sequence | soluble fraction (log2) |
| --- | --- |
| HMSMEQAKAEEIEKLGDNAPERLQAAALFAEKFFPQDVMDAVYKITETADGVRAIEHIMQTVK | -1.28 |
| HMSMISLPNFVGKDIETVKAWAKENGITLIINKVEDSAKKDTVISQNPTNSDYSKILKGSAFTVNIAKE | 0.0206 |
| HMSMRILNHTVVKILKRYRIATDEQLQPLLDEAERSGRSLQDVVLDAKLVSETELTKLFADYAD | -0.0864 |
| HMSMVGNIEKILVTGESKKSSELLAGRTENNRVVNFTGEKVLIGSMVNVRIEEVFPNSLGGSYLPS | -0.16 |
| HMSNAIDDAVEKVISENLDLAKERGLQSMGPLMGLVMKELGGTADGKAVSEALRRKISEISD | 0.293 |
| HMSNEDAYIKLRNGFLATLSEADLLLFTLREEGKTQKEIADQLGYKTHSAVSKRLQTMRGQFEGYLKTQ | -0.68 |
| HMSNEIIFNQKSITRFLMNPENNSPMIYPLELGHEMKVIKKNNDWLNVTDEKTGLNGWVISDDFGLTKPEG | -0.212 |
| HMSNETLFEFFEKNISQLTPTLVDNINRSLAVHSKKNVKLAIMIAAKSNVRNWNYISAILNRWEKE | -2.21 |
| HMSNIAQRLVLENALAKLNQEQQTIIDLRIIKGYSVAETARLLGKTESAVRTAQYRALKELAGILEED | -0.86 |
| HMSNIIIYPNPTNDGLIHIKGSKFPFNYALYNLSGKLIETGKKNQIQLNDRGVYLLKIQTEGQTYFKKII | 0.272 |
| HMSNNILEISSNKKNMKIQENKNLVESYYSKTENLYSFKLVFKNKRDLDQFLKEVYEDDSTINYKTSS | -0.412 |
| HMSNPPLPFLAKTKVSWTGEQDGDLGFLENEVVKVFHVVDELWWQGSLSRNGAEGIFPRDFVEVISAP | -1.8 |
| HMSNSWSYSEFMKAVESGQVESVTISGQSIKGTSRGGQAFESVLPAFDDKLMDTLLVNDVEVIGEKP | -0.00195 |
| HMSNTGDIIRKLREESGVTAKELAHRIGLSASQMSRLESGKRRINSEVLTRIARALEVAPSQLID | -0.136 |
| HMSNTIFGINGPVVTVASKDFSMQEMVYVGNERLVGEVISIDDDLTTIQVYEVTTGLKPGEPVVGTGSAM | -0.531 |
| HMSNVDYSQFKKDTVVEHTKFGRGIIIQTSGDGEDKIAAIAFKGLGVKRFSLAIAAASLKIIGKNDE | -0.0817 |
| HMSNYFIEISKDSLARINDEIELDVLRETSDTIIISQEEKTNTISSFIKVLFERQIDILSIQNR | 0.000151 |
| HMSNYYNILGVNKSSTQDEIKKAFRKKAVEHHPDKGGNEATFKKINEAYNTLSDNNKRHMYDMQQSG | 0.213 |
| HMSPDALSNLPIGSEIKFTLWDGTEKRLVKHPAAYQFSRPFWMNLNEYTYVPVNRIPKNYEVIRL | -0.0581 |
| HMSPEVEEISIDHLKAGMRILSDLRLPNGTLVAPKGSVVDAHFIKIVENYVISYFGNPFPDRIKVIM | -1.4 |
| HMSPEWTPAEQDAIDKASEGEYGEALQRVLSGDYEPMDIPDALWGVQQVADKDTYSSIQKKIADIGN | 0.42 |
| HMSPIPLPVERAIHKLGSDISLARRRRHISQASLAERMGASLSTVRRMEKGDVRVPIHFFARALHVFG | -0.00115 |
| HMSPIQLKYNEYLIYIDEGKINTAEIHGNKITGKLKEGSEYVVTIYPELIASITEKLAENNVQTQLIQ | -0.0206 |
| HMSPLPDRESLGAIEKLISLLGSSEWTVREKATRELGAFGYLARPVLQRELATSGDPEVSRRLERILSNL | -0.332 |
| HMSPLTPEEAEVLRILGDHGDMTVDNIATEGKMSAAAVLRVLGVLSAYGLAVPSGPGRWGSRAA | -0.24 |

| Sequence | soluble fraction (log2) |
| --- | --- |
| HMSPPPRPSHPEAAGLRHLAFEVDNIDDAVRHLDRLGVPHEPVRTDEYTGRRFLFFTDPDRLPLELYEK | -0.0818 |
| HMSPQIDYFDDEELDVYRQIAPEAYTDEQIEVFRDILYTLRPEEVEEWLISLEKREINLPLILRQEAIELI | 0.369 |
| HMSPRQVTAVRSGSPMPVLPGEDWRLYDASGALVARGSGAAPIPKSTGLLRLNSEGLDGLADRWIWVL | -0.255 |
| HMSPSRRENLTAAAKEYFVNTQIRHKTFGNGVIIKRSGNIAAIRFDNGTIKQIDLIAALQAKVLSIL | 0.168 |
| HMSPSTNKTFSFSKENISIGQTVFIKKLNQNATVLTLPNKSNQLQVQFGVITMNVKLEDLALPTN | -0.171 |
| HMSPTSSRAAQARIRKMIESESPLKPISDSQLAARLGEEGISIARRTVAKYREQMNILPASQRRGV | -0.146 |
| HMSPVPRIEIELTSSKEDGSWTWRAVGAREPRGSLDGALLAKPAAVGDVLRVETDQFLDGMTVTAILPPRD | -0.325 |
| HMSQAVEISSVKTQIDGKSYYLHTIKQGQTLYGISKAYGVSVEELTTVNPETSKGLKVGQIIKVPDTKT | 0.0299 |
| HMSQDLVVLGDSMLNNALKAFHIDPNAIKKKYWDKLILDYHLKSKEEVLTEIALGKKINVMVAHQLTSIMD | -0.0721 |
| HMSQEILSNQSIKDMIELGFEEQTIIDKIQTSTSDFDTTIEELKALKQLGASPTILSAMIKSIKK | 0.285 |
| HMSQLDITEARIVVSGGLGMQGPENFKLLEELAKVLGGAVGASRPVVDNGWREYSNQVGQTGKIVAPELYV | -0.0903 |
| HMSQLETEEAKRIVLKDLLRLYNNYNIIELEEDEFDRFITYLNMPYDFLQKTSDYDLAVSIKRMYASY | -2.3 |
| HMSQNISSTKLIPENIKIGMSVFVIPLQQKGIVQSLPNRSKEVLVQIGNAKINVKINNLKLIED | 0.295 |
| HMSQNTHTIPSREDILGIFRSVNAPLDPQSLGKTLQVHADSMDVLVRRLKAMERDGQLKSDASGVFSLAD | 0.119 |
| HMSQNVQDVFLNHVRKSKNPVTVFLVNGVKLQGIITWFDNFSVLLRREGHTQLVYKHAISTVMPSGPIQLF | 0.0729 |
| HMSQPALSYAFAKAQGVIVTALGDVAEVARRKGSQPQALAEVRRIAGRPLALREVDDAAFDRLLQDHYARS | -0.243 |
| HMSQQMSYSDFVKAVSARQIREAQIQGDKIYATDSTGNRLTIIRLDNDQRLVDDMINNDVNIIGLEE | 0.156 |
| HMSQSDLASAIGARVTIRLREASGGFRDIVGVLQRFGSGYGELINSKGEALTFSESEIAIWREVKA | -0.358 |
| HMSQTELIIVEEEMDGERLDAFLAEQVEQLSRSAVKNLINEGQVLVNGAKQKASYHVREGDEISIEIPEPQ | 0.0254 |
| HMSQTPDLQQERANLGDNADARIEAVDLWANKFFPEEHADAILQIGQTAKGIEALEFIMSKV | 0.0193 |
| HMSQVLVRINQDLNIRSGPGAQYDIIAVYRSGAIASVIGTYNNWYKVNFELDSKSYTGWINGTFTSR | -1.93 |
| HMSQYELEDVEKQRLKFKNGDEKALWLLSDIYKDNSQSYEVRLAALRALSESRHPLIIFDIQSSVK | -0.208 |
| HMSRAAQRLFMSQPPLSRHIRQLEDRLGVTLFVRHTRGLTLTEDGQRVLEMVRPLLDLQDKTYAALSQLT | 0.382 |
| HMSREMIKSELESISGLGKSGIEKLYTHFINIENIKSASLENIRNIPGISYKVADNIYKHFH | -0.195 |
| HMSRLGINTTIEDIKMVGKIIMPLLKQGQSVYQILASHPEIPYSEKTLYSYIEDNIFKDAGIDISVFDL | -0.931 |
